Measurements: publication PMC10213050 (Nature Communications, 2023)

T1: GST-Srs2 (yeast (Saccharomyces cerevisiae), UniProt P12954 1-1174)
T1 construct: Srs2 helicase, yeast; also called recombinant GST-Srs2
T1 sequence (looked up): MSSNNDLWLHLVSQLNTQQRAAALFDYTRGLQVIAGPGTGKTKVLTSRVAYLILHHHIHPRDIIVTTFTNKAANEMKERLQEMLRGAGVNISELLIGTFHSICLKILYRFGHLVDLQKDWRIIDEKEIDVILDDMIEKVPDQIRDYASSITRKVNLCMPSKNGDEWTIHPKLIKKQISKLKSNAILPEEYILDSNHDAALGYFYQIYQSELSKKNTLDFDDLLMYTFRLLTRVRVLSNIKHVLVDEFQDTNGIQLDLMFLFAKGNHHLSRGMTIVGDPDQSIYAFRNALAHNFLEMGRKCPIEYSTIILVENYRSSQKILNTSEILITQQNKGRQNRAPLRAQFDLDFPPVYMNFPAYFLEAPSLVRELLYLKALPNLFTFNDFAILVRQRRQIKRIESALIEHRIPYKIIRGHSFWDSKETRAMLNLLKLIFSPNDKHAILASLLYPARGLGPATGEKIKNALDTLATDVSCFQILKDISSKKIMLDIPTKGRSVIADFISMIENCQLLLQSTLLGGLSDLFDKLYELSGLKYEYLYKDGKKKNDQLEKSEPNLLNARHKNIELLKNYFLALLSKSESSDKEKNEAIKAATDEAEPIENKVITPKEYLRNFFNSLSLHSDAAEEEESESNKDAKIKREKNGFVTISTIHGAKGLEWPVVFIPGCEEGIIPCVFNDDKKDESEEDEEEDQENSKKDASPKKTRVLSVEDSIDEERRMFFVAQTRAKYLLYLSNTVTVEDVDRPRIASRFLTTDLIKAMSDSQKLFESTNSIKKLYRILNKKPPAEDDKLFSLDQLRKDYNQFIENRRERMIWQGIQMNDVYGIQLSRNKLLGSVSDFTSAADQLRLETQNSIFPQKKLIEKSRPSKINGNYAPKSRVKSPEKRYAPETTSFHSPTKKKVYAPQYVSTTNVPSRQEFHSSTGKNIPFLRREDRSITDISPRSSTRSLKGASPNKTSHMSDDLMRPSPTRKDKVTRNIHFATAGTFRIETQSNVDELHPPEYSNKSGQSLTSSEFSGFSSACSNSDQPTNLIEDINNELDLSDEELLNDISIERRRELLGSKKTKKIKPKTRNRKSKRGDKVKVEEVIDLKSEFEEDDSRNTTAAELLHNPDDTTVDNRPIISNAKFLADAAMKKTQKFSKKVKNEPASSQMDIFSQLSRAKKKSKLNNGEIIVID

T2: 6xHis-Bre1 (yeast (Saccharomyces cerevisiae), UniProt Q07457 1-700)
T2 construct: Bre1, yeast ubiquitin E3 ligase; also called WT Bre1; wild-type Bre1; source: E. coli BL21 (DE3), purified (Ni-NTA)
T2 sequence (looked up): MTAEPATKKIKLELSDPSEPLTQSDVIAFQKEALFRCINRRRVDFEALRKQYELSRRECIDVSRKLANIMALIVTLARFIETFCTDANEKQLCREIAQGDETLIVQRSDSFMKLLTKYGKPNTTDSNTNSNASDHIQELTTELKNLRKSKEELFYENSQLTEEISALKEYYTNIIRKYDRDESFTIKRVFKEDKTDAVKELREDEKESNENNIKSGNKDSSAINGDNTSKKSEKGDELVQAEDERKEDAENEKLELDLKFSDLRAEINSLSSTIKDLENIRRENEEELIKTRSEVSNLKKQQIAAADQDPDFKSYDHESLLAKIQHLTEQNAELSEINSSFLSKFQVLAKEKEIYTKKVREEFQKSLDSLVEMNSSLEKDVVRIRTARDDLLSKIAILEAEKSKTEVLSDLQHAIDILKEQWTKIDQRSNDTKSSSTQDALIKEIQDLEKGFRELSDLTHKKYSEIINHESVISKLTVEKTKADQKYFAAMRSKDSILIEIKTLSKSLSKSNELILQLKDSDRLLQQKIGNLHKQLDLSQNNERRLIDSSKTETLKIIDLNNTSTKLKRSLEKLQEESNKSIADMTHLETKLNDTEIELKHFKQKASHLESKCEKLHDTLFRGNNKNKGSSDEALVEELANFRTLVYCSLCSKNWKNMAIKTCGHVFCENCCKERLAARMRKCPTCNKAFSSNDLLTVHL

T3: GST-Bre1 (yeast (Saccharomyces cerevisiae), UniProt Q07457 1-700)
T3 construct: Bre1, yeast ubiquitin E3 ligase; RBD 1-210, linker 211-614, RING 615-700; also called GST-tagged WT Bre1; recombinant GST-Bre1
T3 sequence (looked up): T2 sequence (looked up)

T4: GST-tagged truncated Bre1 1-504 aa (yeast (Saccharomyces cerevisiae), UniProt Q07457 1-504)
T4 construct: source: recombinant, GST-tagged
T4 sequence (looked up): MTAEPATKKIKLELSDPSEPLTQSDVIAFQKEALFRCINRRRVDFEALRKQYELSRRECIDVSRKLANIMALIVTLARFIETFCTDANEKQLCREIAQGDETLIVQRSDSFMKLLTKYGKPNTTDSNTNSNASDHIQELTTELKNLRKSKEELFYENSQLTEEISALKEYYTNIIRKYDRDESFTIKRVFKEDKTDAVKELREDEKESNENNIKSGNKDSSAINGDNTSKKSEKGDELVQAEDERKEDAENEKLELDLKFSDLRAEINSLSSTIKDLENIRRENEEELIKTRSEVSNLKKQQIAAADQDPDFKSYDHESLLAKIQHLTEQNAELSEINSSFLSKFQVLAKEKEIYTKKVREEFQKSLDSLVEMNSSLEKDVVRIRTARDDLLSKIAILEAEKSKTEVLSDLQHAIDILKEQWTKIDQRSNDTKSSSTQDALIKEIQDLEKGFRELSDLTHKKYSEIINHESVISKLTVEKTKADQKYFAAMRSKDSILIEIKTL

B1: 6xHis-tagged Bre1 truncation 1-501 aa (domain or fragment, yeast (Saccharomyces cerevisiae), UniProt Q07457 1-501, looked up)
chain: MTAEPATKKIKLELSDPSEPLTQSDVIAFQKEALFRCINRRRVDFEALRKQYELSRRECIDVSRKLANIMALIVTLARFIETFCTDANEKQLCREIAQGDETLIVQRSDSFMKLLTKYGKPNTTDSNTNSNASDHIQELTTELKNLRKSKEELFYENSQLTEEISALKEYYTNIIRKYDRDESFTIKRVFKEDKTDAVKELREDEKESNENNIKSGNKDSSAINGDNTSKKSEKGDELVQAEDERKEDAENEKLELDLKFSDLRAEINSLSSTIKDLENIRRENEEELIKTRSEVSNLKKQQIAAADQDPDFKSYDHESLLAKIQHLTEQNAELSEINSSFLSKFQVLAKEKEIYTKKVREEFQKSLDSLVEMNSSLEKDVVRIRTARDDLLSKIAILEAEKSKTEVLSDLQHAIDILKEQWTKIDQRSNDTKSSSTQDALIKEIQDLEKGFRELSDLTHKKYSEIINHESVISKLTVEKTKADQKYFAAMRSKDSILIEI
notes: source: recombinant, 6xHis-tagged
B2: GST-RNF20N (domain or fragment, human, UniProt Q5VTR2 1-300, looked up)
chain: MSGIGNKRAAGEPGTSMPPEKKAAVEDSGTTVETIKLGGVSSTEELDIRTLQTKNRKLAEMLDQRQAIEDELREHIEKLERRQATDDASLLIVNRYWSQFDENIRIILKRYDLEQGLGDLLTERKALVVPEPEPDSDSNQERKDDRERGEGQEPAFSFLATLASSSSEEMESQLQERVESSRRAVSQIVTVYDKLQEKVELLSRKLNSGDNLIVEEAVQELNSFLAQENMRLQELTDLLQEKHRTMSQEFSKLQSKVETAESRVSVLESMIDDLQWDIDKIRKREQRLNRHLAEVLERVN
notes: also called N-terminal fragment RNF20N (1-300 aa)
B3: 6xHis-Rad51 (natural protein, yeast (Saccharomyces cerevisiae), UniProt P25454 1-400, looked up)
chain: MSQVQEQHISESQLQYGNGSLMSTVPADLSQSVVDGNGNGSSEDIEATNGSGDGGGLQEQAEAQGEMEDEAYDEAALGSFVPIEKLQVNGITMADVKKLRESGLHTAEAVAYAPRKDLLEIKGISEAKADKLLNEAARLVPMGFVTAADFHMRRSELICLTTGSKNLDTLLGGGVETGSITELFGEFRTGKSQLCHTLAVTCQIPLDIGGGEGKCLYIDTEGTFRPVRLVSIAQRFGLDPDDALNNVAYARAYNADHQLRLLDAAAQMMSESRFSLIVVDSVMALYRTDFSGRGELSARQMHLAKFMRALQRLADQFGVAVVVTNQVVAQVDGGMAFNPDPKKPIGGNIMAHSSTTRLGFKKGKGCQRLCKVVDSPCLPEAECVFAIYEDGVGDPREEDE
notes: Rad51 recombinase, yeast; also called 6xHis-tagged Rad51; yeast Rad51; source: E. coli BL21 (DE3), purified (Ni-NTA)
B4: 6xHis-hRad51 (natural protein, human, UniProt Q06609 1-339, looked up)
chain: MAMQMQLEANADTSVEEESFGPQPISRLEQCGINANDVKKLEEAGFHTVEAVAYAPKKELINIKGISEAKADKILAEAAKLVPMGFTTATEFHQRRSEIIQITTGSKELDKLLQGGIETGSITEMFGEFRTGKTQICHTLAVTCQLPIDRGGGEGKAMYIDTEGTFRPERLLAVAERYGLSGSDVLDNVAYARAFNTDHQTQLLYQASAMMVESRYALLIVDSATALYRTDYSGRGELSARQMHLARFLRMLLRLADEFGVAVVITNQVVAQVDGAAMFAADPKKPIGGNIIAHASTTRLYLRKGRGETRICKIYDSPCLPEAEAMFAINADGVGDAKD
notes: human Rad51 recombinase; also called recombinant hRad51; source: E. coli BL21 (DE3), purified (Ni-NTA)

Tests used:
Conditions in all cases: both partners purified
GST-Srs2 = target: T1, GST-Srs2; test: pull-down; GST-Srs2 on beads with 6xHis-tagged WT, truncated or mutated Bre1; detected by Western blot with an anti-His antibody; whether ssDNA was included is not told
6xHis-hRad51 = target: B4; test: pull-down; ssDNA pull-down: 5'-biotinylated 90-nt ssDNA on streptavidin magnetic beads, yeast or human Rad51 bound first, then Bre1 or RNF20N added; 37 °C; 42 mM Tris-HCl pH 7.5, 15 mM KCl, 90 mM NaCl, 2 mM ATP; Bre1 or RNF20N alone did not bind the ssDNA
6xHis-Bre1 = target: T2, 6xHis-Bre1; test: as above
GST-Bre1 = target: T3, GST-Bre1; test: pull-down; GST-tagged Bre1 (WT, truncated or mutant) or GST-RNF20 on glutathione agarose beads, incubated with 6xHis-tagged Rad51, hRad51 or FBH1 at 4 °C for 4 h; wash 20 mM Tris-HCl pH 7.4, 200 mM NaCl; Western blot or Coomassie
[1] = target: T4, GST-tagged truncated Bre1 1-504 aa; test: as above
GST-RNF20 = target: T5, GST-RNF20 (human, UniProt Q5VTR2 1-975); test: as above
T5 construct: RNF20, human homolog of Bre1; an asterisk marks the full-length band on the gel; also called full-length GST-RNF20

Binder: B1
binding result (GST-Srs2): binds

Binder: B2
binding result (6xHis-hRad51): binds

Binder: B3
binding result (6xHis-Bre1): binds
binding result (GST-Bre1): binds
binding result [1]: binds

Binder: B4
binding result (GST-RNF20): binds
